B1: His-FlgN (natural protein)
chain: MTRLSEILDQMTTVLNDLKTVMDAEQQQLSVGQINGSQLQRITEEKSSLLATLDYLEQQRRLEQNAQRSANDDIAERWQAITEKTQHLRDLNQHNGWLLEGQIERNQQALEVLKPHQEPTLYGADGQTSVSHRGGKKISI
notes: FlgN of Salmonella enterica serovar Typhimurium; source: E. coli BL21 (DE3) Star, in lysate or purified (Ni-NTA)

How the values were obtained:
GST-FliJ = molecular target: T1, GST-FliJ (Salmonella enterica serovar Typhimurium, UniProt P0A1K1 1-147); experiment: SPR; GST-FliJ or GST-FliJ(Δ13–24) captured through immobilised anti-GST antibody on a CM5 chip; His-FlgN flowed over at 20 µl/min; 10 mM HEPES pH 7.4, 0.15 M NaCl, 3 mM EDTA, 0.005% Surfactant P20; 25 °C; steady-state analysis, 1 to 1 binding model; settings: both partners purified
T1 construct: FliJ, flagellar export protein of Salmonella enterica serovar Typhimurium; also called GST-J; source: Salmonella MMHI0117, over-produced, in lysate

His-FlgN = molecular target: B1; experiment: as above; settings: both partners purified

B1
Kd (GST-FliJ): 27.4 ± 13 µM

B2: GST-FliJ(Δ13–24) (natural protein)
chain: MAQHGALETLKDLGEMRRGCQQAEEQLKMLIDYQNEYRSNLNTDMGNGIASNRWINYQQFIQTLEKAIEQHRLQLTQWTQKVDLALKSWREKKQRLQAWQTLQDRQTAAALLAENRMDQKKMDEFAQRAAMRKPE
notes: FliJ of Salmonella enterica serovar Typhimurium with residues 13-24 deleted; also called GST-J(Δ13–24)
Kd (His-FlgN): 7.74 ± 0.12 µM
